Assay results as given in paper PMC13627691 (2026).

B1: ATG2A-mCherry (expressed as 3XFLAG-TEV-ATG2A-mCherry) [not stated (the printed accession is a human entry)] / GST-tagged LC3B [not stated (the printed accession is a human entry)] (parent complex)
chain 1: MSRWLWPWSNCVKERVCRYLLHHYLGHFFQEHLSLDQLSLDLYKGSVALRDIHLEIWSVNEVLESMESPLELVEGFVGSIEVAVPWAALLTDHCTVRVSGLQLTLQPRRGPAPGAADSQSWASCMTTSLQLAQECLRDGLPEPSEPPQPLEGLEMFAQTIETVLRRIKVTFLDTVVRVEHSPGDGERGVAVEVRVQRLEYCDEAVRDPSQAPPVDVHQPPAFLHKLLQLAGVRLHYEELPAQEEPPEPPLQIGSCSGYMELMVKLKQNEAFPGPKLEVAGQLGSLHLLLTPRQLQQLQELLSAVSLTDHEGLADKLNKSRPLGAEDLWLIEQDLNQQLQAGAVAEPLSPDPLTNPLLNLDNTDLFFSMAGLTSSVASALSELSLSDVDLASSVRSDMASRRLSAQAHPAGKMAPNPLLDTMRPDSLLKMTLGGVTLTLLQTSAPSSGPPDLATHFFTEFDATKDGPFGSRDFHHLRPRFQRACPCSHVRLTGTAVQLSWELRTGSRGRRTTSMEVHFGQLEVLECLWPRGTSEPEYTEILTFPGTLGSQASARPCAHLRHTQILRRVPKSRPRRSVACHCHSELALDLANFQADVELGALDRLAALLRLATVPAEPPAGLLTEPLPAMEQQTVFRLSAPRATLRLRFPIADLRPEPDPWAGQAVRAEQLRLELSEPQFRSELSSGPGPPVPTHLELTCSDLHGIYEDGGKPPVPCLRVSKALDPKSTGRKYFLPQVVVTVNPQSSSTQWEVAPEKGEELELSVESPCELREPEPSPFSSKRTMYETEEMVIPGDPEEMRTFQSRTLALSRCSLEVILPSVHIFLPSKEVYESIYNRINNDLLMWEPADLLPTPDPAAQPSGFPGPSGFWHDSFKMCKSAFKLANCFDLTPDSDSDDEDAHFFSVGASGGPQAAAPEAPSLHLQSTFSTLVTVLKGRITALCETKDEGGKRLEAVHGELVLDMEHGTLFSVSQYCGQPGLGYFCLEAEKATLYHRAAVDDYPLPSHLDLPSFAPPAQLAPTIYPSEEGVTERGASGRKGQGRGPHMLSTAVRIHLDPHKNVKEFLVTLRLHKATLRHYMALPEQSWHSQLLEFLDVLDDPVLGYLPPTVITILHTHLFSCSVDYRPLYLPVRVLITAETFTLSSNIIMDTSTFLLRFILDDSALYLSDKCEVETLDLRRDYVCVLDVDLLELVIKTWKGSTEGKLSQPLFELRCSNNVVHVHSCADSCALLVNLLQYVMSTGDLHPPPRPPSPTEIAGQKLSESPASLPSCPPVETALINQRDLADALLDTERSLRELAQPSGGHLPQASPISVYLFPGERSGAPPPSPPVGGPAGSLGSCSEEKEDEREEEGDGDTLDSDEFCILDAPGLGIPPRDGEPVVTQLHPGPIVVRDGYFSRPIGSTDLLRAPAHFPVPSTRVVLREVSLVWHLYGGRDFGPHPGHRARTGLSGPRSSPSRCSGPNRPQNSWRTQGGSGRQHHVLMEIQLSKVSFQHEVYPAEPATGPAAPSQELEERPLSRQVFIVQELEVRDRLASSQINKFLYLHTSERMPRRAHSNMLTIKALHVAPTTNLGGPECCLRVSLMPLRLNVDQDALFFLKDFFTSLVAGINPVVPGETSAEARPETRAQPSSPLEGQAEGVETTGSQEAPGGGHSPSPPDQQPIYFREFRFTSEVPIWLDYHGKHVTMDQVGTFAGLLIGLAQLNCSELKLKRLCCRHGLLGVDKVLGYALNEWLQDIRKNQLPGLLGGVGPMHSVVQLFQGFRDLLWLPIEQYRKDGRLMRGLQRGAASFGSSTASAALELSNRLVQAIQATAETVYDILSPAAPVSRSLQDKRSARRLRRGQQPADLREGVAKAYDTVREGILDTAQTICDVASRGHEQKGLTGAVGGVIRQLPPTVVKPLILATEATSSLLGGMRNQIVPDAHKDHALKWRSDSAQD
chain 2: not shown

Variants of: B1
Assay: bead-based binding assay (GSH beads, confocal imaging of mCherry fluorescence); 5 µM GST-tagged bait on Glutathione Sepharose 4B beads; 0.5 µM ATG2A-mCherry or ATG2A-LIR-mCherry; SEC150 buffer; N = 3; parent: 17; read off a plot

| Variant | response |
| --- | --- |
| chain 1 F1362A, chain 1 C1363A, chain 1 I1364A, chain 1 L1365A | ~0.7% |
